Consider 19 molecules from patent US20240109962A1 (SPARX BIOSCIENCE, published 2024).

First the molecules themselves.
B1: Antibody 2E1_FC3 (antibody, V domains shown)
VH: EVQLVESGGGLVQPGGSLRLSCAVSGYSITSGYYWNWIRQAPGKGLEWVAYISYDGNTNYNPSLKNRFTISRDTSKNTFYLQMNSLRAEDTAVYYCAREESTMITTAWFAYWGQGTLVTVSS
VL: DIQMTQSPSSLSASVGDRVTITCRASENIYSNLAWYQQKPGKAPKLLIYGATNLASGVPSRFSGSGSGTDYTLTISSLQPEDFATYYCQHFWDTPYTFGQGTKVEIK
B2: Antibody 2E1_FG2 (antibody, V domains shown)
VH: B1 VH
VL: B1 VL with T97V
B3: Antibody 2E1_FD4 (antibody, V domains shown)
VH: B1 VH with T58P
VL: B1 VL
B4: Antibody 2E1_GE11 (antibody, V domains shown)
VH: B1 VH with Y34S, T58N
VL: B1 VL with R24G, N53E
B5: Antibody 2E1_FF4 (antibody, V domains shown)
VH: B1 VH with T58N, N59W
VL: B1 VL
B6: Antibody 2E1_GF1 (antibody, V domains shown)
VH: B1 VH with T58N
VL: B1 VL with N28V
B7: Antibody 2E1_FD3 (antibody, V domains shown)
VH: B1 VH with T58A
VL: B1 VL
B8: Antibody 2E1_GB11 (antibody, V domains shown)
VH: B1 VH with T58N
VL: B1 VL with S56L
B9: Antibody 2E1_GB1 (antibody, V domains shown)
VH: B1 VH with Y34S, T58N
VL: B1 VL
B10: Antibody 2E1_FH9 (antibody, V domains shown)
VH: B1 VH with T58N, N59L
VL: B1 VL
B11: Antibody 2E1_FG4 (antibody, V domains shown)
VH: B1 VH with T58V
VL: B1 VL with T97I
B12: Antibody 2E1_FH2 (antibody, V domains shown)
VH: B1 VH with Y51S, T58N
VL: B1 VL
B13: Antibody 2E1_GD9 (antibody, V domains shown)
VH: B1 VH with T58N
VL: B1 VL with Y30F
B14: Antibody 2E1_GH6 (antibody, V domains shown)
VH: B1 VH with Y34H, T58N
VL: B1 VL
B15: Antibody 2E1_GF9 (antibody, V domains shown)
VH: B1 VH with Y34S, T58N
VL: B1 VL with N28T, S56A
B16: Antibody 13C5 (antibody, V domains shown)
VH: QVQLKQSGPGLVQPSQSLSITCTVSGFSLTTFGVHWVRQSPGKGLEWLGVIWRGGSTDYNAAFMSRLSITKDNSKSQVFFKMNSLQADDTAIYYCAKNPYQYGSSHYYAMDYWGQGTSVTVSS
VL: DIVMTQSPSSLSVSAGEKVTMSCKSSQSLLNSGNQKNYLAWYQQKPGQPPKLLIYGASTRESGVPDRFTGSGSGTVFTLTISSVQAEDLAVYYCQNDHILPFTFGSGTKLEIK
notes: Mouse hybridoma mAb purified from ascites
B17: Antibody 13H5 (antibody, V domains shown)
VH: EIQLQQSGPELVKPGTSVKVSCKASGSSFTDYNMYWVKQSHGKSLDWIGYIDPYNGRTTYNQKFRGKATLTVDKSSSTAFMHLNSLTSEDSAVYYCARGDYFDYWGQGTSLTVSS
VL: EIQMTQTTSSLSASLGDRVTISCSASQGISNYLNWFQQKPDGTVKLLIYYTSTLHSGVPSRFSGSGSGTDFSLTISNLDPEDFATYYCQQYSNLPYTFGGGTKLEIK
notes: as for B16
B18: Antibody 13C4 (antibody, V domains shown)
VH: QIHLVQSGPELKKPGETVKISCKASGYTFTNYGMNWVKQAPGKALKWMGWMNTYIGEPTYADDFKGRFAFSLETSASTAYLQINNLKNEDMATYFCARRGDYASYYFDYWGQGTTLTVSS
VL: DIVLTQSPATLSVTPGDSVSLSCRASQNINNNLHWYHQKSHESPRLLIKYASQSISGIPSRVSGSGSGTDFTLSIVTVETEDFGMFFCQQSNSWPHTFGGGTKLEIR
notes: as for B16
B19: chimeric 9B6 (antibody, V domains shown)
VH: DVQLVESGGGLVQPGWSRILSCAASGFTFSNFGMHWVRQAPEKGLEWVAYISSGSGTIYYSDTVRGRFTISRDNPKNTLFLLMTSLRSEDTAMYYCTRSDYDGDWFFDVWGAGTTVTVSS
VL: DIVMTQSHRFLSTSVGDRVTITCKASQDVTTAVAWCQQKPGQSPKLLIYSASFRYTGVPDRFTGSGSGTDFTFTINNVQAEDLALYYCQQHFTTPLTFGAGTKLELK

Numbering of substitutions follows the chain as printed.

T1 sequence (Q8N423 22-460 limits assumed): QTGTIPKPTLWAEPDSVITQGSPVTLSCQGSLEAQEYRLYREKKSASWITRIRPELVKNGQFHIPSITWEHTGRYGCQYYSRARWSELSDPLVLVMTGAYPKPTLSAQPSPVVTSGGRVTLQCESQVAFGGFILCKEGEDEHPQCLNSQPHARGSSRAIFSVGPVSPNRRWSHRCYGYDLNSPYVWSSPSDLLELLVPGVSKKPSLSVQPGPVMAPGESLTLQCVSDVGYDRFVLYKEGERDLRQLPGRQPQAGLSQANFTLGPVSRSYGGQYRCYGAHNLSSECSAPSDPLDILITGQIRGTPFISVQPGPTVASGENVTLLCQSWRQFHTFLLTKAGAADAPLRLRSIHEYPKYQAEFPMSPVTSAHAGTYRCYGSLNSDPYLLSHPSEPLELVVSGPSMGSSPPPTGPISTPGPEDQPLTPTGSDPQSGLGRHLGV
T3 sequence (Q8NHL6 24-650): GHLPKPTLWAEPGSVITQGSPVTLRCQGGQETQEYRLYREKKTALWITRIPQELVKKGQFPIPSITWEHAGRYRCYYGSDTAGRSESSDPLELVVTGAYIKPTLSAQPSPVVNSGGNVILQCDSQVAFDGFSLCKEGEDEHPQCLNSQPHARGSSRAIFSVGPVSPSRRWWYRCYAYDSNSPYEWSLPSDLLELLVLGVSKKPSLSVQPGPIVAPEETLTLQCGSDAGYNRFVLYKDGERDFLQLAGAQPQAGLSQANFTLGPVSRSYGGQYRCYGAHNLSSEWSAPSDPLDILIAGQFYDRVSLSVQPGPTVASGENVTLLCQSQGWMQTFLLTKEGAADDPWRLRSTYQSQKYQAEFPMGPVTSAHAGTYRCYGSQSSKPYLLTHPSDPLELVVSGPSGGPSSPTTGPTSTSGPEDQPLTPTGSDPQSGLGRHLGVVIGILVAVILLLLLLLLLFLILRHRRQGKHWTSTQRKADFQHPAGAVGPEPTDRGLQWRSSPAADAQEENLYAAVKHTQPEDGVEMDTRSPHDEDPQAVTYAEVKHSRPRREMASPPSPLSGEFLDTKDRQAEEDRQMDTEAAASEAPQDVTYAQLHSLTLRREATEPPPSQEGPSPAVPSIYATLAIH

One assay addresses T1, recombinant human LILRB2 protein (human, UniProt Q8N423 22-460, limits assumed).
T1 construct: also called recombinant LILRB2 protein
The assay is described as follows: ELISA, coated recombinant human LILRB2. More on the design: unit not given here. Here is the method:
This affinity maturation library was screened against human LILRB2 to identify antibodies having high binding affinity to LILRB2. Briefly, an ELISA plate was coated with 0.1 ug/well recombinant human LILRB2 protein. Serial diluted maturated h#2E1 antibodies were incubated in the LILRB2 coated plate for 2 hrs. The plate was washed and a secondary HRP-labeled anti-human IgG was then added to each well. After being incubated at room temperature for 1 hour, the colorimetric ELISA signals were developed by adding the TMB substrate and reaction was stopped by 1M H3PO4. Table 7 below provides binding activities of exemplary matured antibodies to recombinant LILRB2 protein.
(In general: In an ELISA, binding on a coated surface is turned into a signal by an enzyme label.)
On to B1, for which the Bmax came out at 1.29.

With B2, the Bmax came out at 1.26.

Turning to B3, the Bmax is 1.14.

In the case of B4, the Bmax was determined as 1.37.

With B5, the Bmax amounted to 1.59.

With B6, the Bmax amounted to 1.5.

For the molecule B7, the Bmax is 1.28.

As for B8, the Bmax was 1.16.

In the case of B9, the Bmax was 1.01.

As to B10, the Bmax came out at 1.24.

With B11, the Bmax was found to be 1.4.

On to B12, for which the Bmax came out at 0.989.

On to B13, for which the Bmax was found to be 1.39.

B14: the Bmax is 1.26.

With B15, the Bmax was determined as 1.14.

The target in the next assay is T2, human LILRB2 expressed on cells (293T-LILRB2, CHO-K1-LILRB2) (human, UniProt Q8N423 22-597).
T2 construct: whole, on cells; the cell line is named under assay; also called HEK293T-LILRB2
T2 sequence (Q8N423 22-597): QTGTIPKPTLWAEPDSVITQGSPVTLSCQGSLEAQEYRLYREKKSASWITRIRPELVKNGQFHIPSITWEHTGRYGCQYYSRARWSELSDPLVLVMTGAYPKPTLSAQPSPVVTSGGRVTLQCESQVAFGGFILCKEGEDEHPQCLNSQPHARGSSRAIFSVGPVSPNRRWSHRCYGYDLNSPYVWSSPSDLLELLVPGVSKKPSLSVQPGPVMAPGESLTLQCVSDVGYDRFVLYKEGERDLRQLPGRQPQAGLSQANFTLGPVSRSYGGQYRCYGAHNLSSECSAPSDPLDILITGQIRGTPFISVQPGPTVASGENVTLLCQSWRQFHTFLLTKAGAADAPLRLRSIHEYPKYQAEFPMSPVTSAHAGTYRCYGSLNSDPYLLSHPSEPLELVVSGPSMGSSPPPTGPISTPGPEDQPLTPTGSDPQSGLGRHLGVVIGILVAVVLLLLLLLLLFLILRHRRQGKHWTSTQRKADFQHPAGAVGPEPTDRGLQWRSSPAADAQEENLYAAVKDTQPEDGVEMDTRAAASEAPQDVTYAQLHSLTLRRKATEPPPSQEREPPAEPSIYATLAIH
The assay is described as follows: flow cytometry, 293T-LILRB2 cells. The source says:
The fluorescent signals were detected by flow cytometry.
A general note: A flow cytometer gives signals particle by particle.
The molecule B1 registered a Bmax of 456000.

B2: the Bmax amounted to 417000.

In turn, B3 gave a Bmax of 431000.

Take B4: the Bmax is 658000.

Take B5: the Bmax came to 462000.

Molecule B6 had a Bmax of 706000.

Turning to B7, the Bmax was 460000.

B8: the Bmax was 627000.

B9: the Bmax is 637000.

In turn, B10 registered a Bmax of 684000.

On to B11, for which the Bmax came to 434000.

For B12, the Bmax was 420000.

For the molecule B13, the Bmax was determined as 724000.

B14 returned a Bmax of 678000.

In the case of B15, the Bmax was 639000.

A further assay has as its target T3, human LILRB1 expressed on 293T cells (human, UniProt Q8NHL6 24-650).
T3 construct: whole, on cells
The assay is described as follows: flow cytometry on 293T transfectants, MFI. Here is the method:
(§1) The cells were then immobilized with glutaraldehyde in the presence of 5% defatted milk at room temperature for 2 hours. An anti-LILRB2 antibody (5 μg/ml) was added to each well and incubated at room temperature for 1 hours. An Alex Flour®-labelled goat anti-mouse secondary antibody (1:2,000 dilution) was then added into each well and incubated at room temperature for 30′. The cells were washed twice with PBS after the staining. Fluorescence intensities (MFI) were measured.
Consider B16, for which the binding result was “no binding (tested: 5 µg/ml)”.

The target in a further assay is T4, human LILRB3 expressed on 293T cells (human, UniProt O75022 24-631).
T4 construct: whole, on cells
Nature of the assay: flow cytometry on 293T transfectants, MFI. Here is the method: as §1
In the case of B17, the binding result is “no binding (tested: 5 µg/ml)”.

For B16, the binding result is listed as “no binding (tested: 5 µg/ml)”.

In a further assay the target is T5, LILRB3-His.
T5 construct: also called His-tagged LILRB3; recombinant LILRB3 protein
Nature of the assay: ELISA on recombinant His-tagged protein, OD450.
B17: the binding result is recorded as “no binding”.

For a further assay, the target named is T2, human LILRB2 expressed on cells …. Nature of the assay: flow cytometry, His-HLA-A2 tetramer (competitor) bound to 293T-LILRB2 cells, relative to no antibody. Set-up: concentration or dose not given beside the values. Here is the method: Serial diluted h#2E1 antibodies were then added to the mixture and incubated at room temperature for another 45 minutes. […]
On to B1, for which the “% no Ab” value amounted to 52.1%.

As for B2, the “% no Ab” value was determined as 53.6%.

Consider B3, for which the “% no Ab” value worked out at 49%.

On to B4, for which the “% no Ab” value came out at 46.2%.

Take B5: the “% no Ab” value came out at 53.3%.

B6: the “% no Ab” value was 47.9%.

In the case of B7, the “% no Ab” value was found to be 51%.

For the molecule B8, the “% no Ab” value amounted to 50.1%.

With B9, the “% no Ab” value was 50.9%.

As to B10, the “% no Ab” value was 47.1%.

Turning to B11, the “% no Ab” value was determined as 55.4%.

Turning to B12, the “% no Ab” value was 51.5%.

In the case of B13, the “% no Ab” value is 52.9%.

On to B14, for which the “% no Ab” value turned out to be 46.6%.

Consider B15, for which the “% no Ab” value was 46.2%.

The next assay shares this target. The assay is described as follows: flow cytometry, blockade of His-tagged HLA-G tetramer binding to 293T-LILRB2 cells; fit table under the graph. Here is the method: (§2) Serial diluted humanized LILRB2 antibodies were then added to the mixture and incubated at room temperature for another 45 minutes. The binding of HLA-G/LILRB2 was detected afterwards using a secondary PE-labeled anti-His tag antibody via flow cytometry.
With B1, the IC50 (usually the concentration needed to halve the response being measured) turned out to be 122 pM and the Span was found to be 9690 RFU.

B5 had an IC50 of 254 pM and a Span of 6670 RFU.

For B7, the IC50 was determined as 232 pM and the Span worked out at 6750 RFU.

The target in a further assay is LILRB2 antigen of the ELISA of Table 5 (format not specified) (UniProt Q8N423 22-460, limits assumed). Nature of the assay: ELISA, antibody titration.
LILRB2 antigen of the ELISA of Table 5 (format not specified), sequence (Q8N423 22-460 limits assumed): as the sequence (Q8N423 22-460 limits assumed) above
Turning to B18, the Kd (commonly a measure of binding affinity in units of concentration) amounted to 11700 pM.

In the case of B17, binding was characterised by a dissociation constant (Kd) of 1390 pM.

Molecule B16 gave a dissociation constant (Kd) of 314 pM.

In a further assay the target is T2, human LILRB2 expressed on cells …. The assay is described as follows: flow cytometry, blockade of His-tagged HLA-G tetramer binding to 293T-LILRB2 cells; fit table under the graph. This is another data set of the same source. Here is the method: as §2
B19 had an IC50 of around 833 pM.

B6: the IC50 came to 331 pM and the Span amounted to 6980 RFU.

As for B8, the half-inhibitory concentration (IC50) was determined as 590 pM and the Span was determined as 8170 RFU.

Molecule B14 showed an IC50 of 596 pM and a Span of 5760 RFU.
